Assay results taken from publication PMC3753651.

Key:
GFP-Polη = GFP-Polη (UniProt Q9Y253); experiment: co-IP
[1] = target: GFP-mRev1 (not stated (label mRev1)) (UniProt Q920Q2); experiment: co-IP

PCNA-Ub:PCNA precipitation ratio (GFP-Polη): 3.5
PCNA-Ub:PCNA precipitation ratio [1]: 8.5
Substance: PCNA-Ub (C-terminal fusion of ubiquitin to PCNA-K164R) (from UniProt P12004 1-261; P0CG48 1-76)
